The results in this text go back to patent publication US20230227572A1 (HEFEI TG IMMUNOPHARMA, published 2023).

Assay [1] addresses T1, recombinant human PVRIG-human IgG1 Fc fusion protein (human).
T1 construct: no linker is told; also called human PVRIG-Fc fusion protein
The assay is described as follows: SPR (Biacore), human PVRIG-human IgG1 Fc on chip, antibody in flow, 1:1 model. As to the method:
The binding kinetics and dissociation equilibrium constant (KD) of the antibodies of the present disclosure to human PVRIG were determined using the surface plasmon resonance (Biacore) assay. Briefly, a CMS chip was coated with human PVRIG-human IgG1 Fc fusion protein, and after being blocked, antibody solutions of different concentrations passed through the CMS chip at a fixed flow rate and bound to antigen for 2 min, followed by transfer to dissociation buffer for 6 min for determination of the dissociation rate. The kinetics were analyzed using a 1:1 binding model.
Target sequence in this assay (chain, as listed by the source limits assumed): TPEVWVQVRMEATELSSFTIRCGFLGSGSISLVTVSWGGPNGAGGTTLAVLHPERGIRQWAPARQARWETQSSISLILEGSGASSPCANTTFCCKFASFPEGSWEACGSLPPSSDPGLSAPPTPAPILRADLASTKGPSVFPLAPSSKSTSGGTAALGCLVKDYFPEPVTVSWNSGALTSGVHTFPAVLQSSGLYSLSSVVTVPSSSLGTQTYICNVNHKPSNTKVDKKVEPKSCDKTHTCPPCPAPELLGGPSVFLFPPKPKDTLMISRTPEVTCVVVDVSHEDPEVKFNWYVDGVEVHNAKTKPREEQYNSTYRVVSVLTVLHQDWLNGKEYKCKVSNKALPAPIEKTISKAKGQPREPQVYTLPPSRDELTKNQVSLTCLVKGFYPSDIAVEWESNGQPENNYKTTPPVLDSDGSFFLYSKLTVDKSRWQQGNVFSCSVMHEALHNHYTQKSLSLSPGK

The target in assay [2] is T2, human PVRIG protein on the cell membrane surface (human, UniProt Q6DKI7 41-326).
T2 construct: Also used here for the natural PVRIG on NKG cells and human lymphocytes; also called 293T-human PVRIG cell line; PVRIG on NKG cell line
T2 sequence: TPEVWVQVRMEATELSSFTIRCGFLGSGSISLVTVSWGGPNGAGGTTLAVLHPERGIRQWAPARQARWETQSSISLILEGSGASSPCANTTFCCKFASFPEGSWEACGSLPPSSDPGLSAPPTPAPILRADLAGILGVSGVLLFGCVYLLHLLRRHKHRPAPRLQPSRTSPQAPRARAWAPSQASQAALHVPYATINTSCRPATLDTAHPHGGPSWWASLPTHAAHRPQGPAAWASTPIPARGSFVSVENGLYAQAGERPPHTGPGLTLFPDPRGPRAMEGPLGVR
Briefly: flow cytometry on 293T-human PVRIG cells, AF647 goat anti-mouse IgG, percent positive cells. As to the method: The activity of murine antibodies from different clones in binding to human PVRIG protein on the cell membrane surface was evaluated by flow cytometry. The experimental procedure was as follows:
The 293T-human PVRIG cell line was harvested, washed with 1×PBS and resuspended, the cells were counted. Then […] were placed into each 1.5 ml Ep tube, the respective murine antibody (Antibody 1, Antibody 2, Antibody 3, or Antibody 4) was added at different concentrations, the mixture was incubated at 4° C. for 30 min, then washed with 1×PBS, and centrifuged at 3,500 rpm for 5 min to harvest the cells. The cell pellet was resuspended in 100 μl of 1×PBS, a AF647-labeled goat anti-mouse IgG antibody (available from Biolegend) was added, the mixture was incubated at 4° C. for 30 min in the dark, followed by washing twice with 1×PBS and harvesting the cells by centrifugation at 3,500 rpm for 5 min. The cell pellet was resuspended with 200 μl of 1×PBS and measured using a flow cytometer (BD LSR II).

The target in assay [3] is T1, recombinant human PVRIG-human IgG1 Fc …. The assay is described as follows: ELISA, plate coated with human PVRIG-human IgG1 Fc at 1.0 µg/ml, HRP goat anti-mouse IgG, OD450. As to the method: The activity of the murine antibodies from different clones in binding to the human PVRIG-Fc fusion protein was evaluated by ELISA. The experimental procedure was as follows:
The recombinant human PVRIG-human IgG1 Fc fusion protein was diluted to 1.0 μg/ml in 1×PBS (phosphate buffer), the dilution was plated onto a 96-well ELISA plate overnight at 4° C. by 100 μl/well, the plate was washed 3 times with PBST (0.05% Tween20-PBS) and blocked with 1% BSA, followed by incubation at 37° C. for 2 h. The plate was washed 3 times with PBST, and murine antibodies (Antibody 1, Antibody 2, Antibody 3, or Antibody 4) diluted in multiple ratios were respectively added to set 8 concentrations, and the mixture was incubated at 37° C. for 1 h using mouse IgG1 (available from Biolegend) as a negative control at 100 μl/well. The plate was washed 3 times with PBST, and 100 μl of horseradish peroxidase (HRP)-labeled goat anti-mouse IgG antibody (available from BOSTER, 1:10,000 dilution) was added to each well, and the mixture was incubated at 37° C. for 1 h. After washing, 100 μl of TMB substrate solution was added to each well for developing for 10 to 15 min in the dark, 100 μl of stop solution (2M H2SO4) was added to each well, the solution was measured with a microplate reader immediately after the reaction stopped, and the absorbance at 450 nm (OD450) was read.

Assay [4] has as its target T3, recombinant Macaca fascicularis PVRIG-human IgG1 Fc fusion protein (Macaca fascicularis; human).
T3 construct: Prepared 'in a similar manner' to the human PVRIG fusion
Briefly: ELISA, plate coated with Macaca fascicularis PVRIG-human IgG1 Fc at 1.0 µg/ml, HRP goat anti-mouse IgG, OD450. As to the method:
The activity of the murine antibody in binding to the Macaca fascicularis PVRIG was evaluated by an ELISA method. The experimental procedure was as follows:
The recombinant Macaca fascicularis PVRIG-human IgG1 Fc fusion protein was diluted to 1.0 μg/ml in 1×PBS (phosphate buffer), the dilution was placed in a 96-well ELISA plate overnight at 4° C. by 100 μl/well, the plate was washed 3 times with PBST (0.05% Tween20-PBS) and blocked with 1% BSA, and the mixture was incubated for 2 h at 37° C. The plate was washed 3 times with PBST, and the murine antibody (Antibody 4) diluted in multiple ratios were respectively added to set 11 concentrations, and the mixture was incubated at 37° C. for 1 h using mouse IgG1 as a negative control at 100 μl/well. The plate was washed 3 times with PBST, 100 μl of horseradish peroxidase (HRP)-labeled goat anti-mouse IgG antibody (available from BOSTER, 1:10,000 dilution) was added to each well, and the mixture was incubated at 37° C. for 1 h. After washing, 100 μl of TMB substrate solution was added to each well for developing for 10 to 15 min in the dark, 100 μl of stop solution (2M H2SO4) was added to each well, the solution was measured with a microplate reader immediately after the reaction stopped, and the absorbance at 450 nm (OD450) was read. […]

For assay [5], the target named is T1, recombinant human PVRIG-human IgG1 Fc …. The assay is described as follows: flow cytometry blocking assay: antibody plus 10 µg/ml Fc fusion protein on 293T-human CD112 cells, AF647 anti-human IgG-Fc; y axis Human PVRIG-Fc fusion protein binding (%); blocked ligand: human CD112 on the cells. As to the method: The activity of murine antibodies from different clones in blocking the binding of the human PVRIG to its ligand CD112 was evaluated by flow cytometry. The experimental procedure was as follows:
The 293T-human CD112 cell line was harvested, and washed resuspended with 1×PBS to count the cells. […] The cell pellet was resuspended in 100 μl of 1×PBS, a AF647-labeled mouse anti-human IgG-Fc antibody (available from Biolegend) was added, the mixture was incubated at 4° C. for 30 min in the dark, followed by washing twice with 1×PBS and harvesting the cells by centrifugation at 3,500 rpm for 5 min. The cell pellet was resuspended with 200 ul of 1×PBS and measured using a flow cytometer (BD LSR II).

In assay [6] the target is T2, human PVRIG protein on the cell …. The assay is described as follows: flow cytometry on 293T-human PVRIG cells, AF647 mouse anti-human IgG-Fc, percent positive cells. As to the method:
The activity of the humanized antibodies in binding to human PVRIG was evaluated by flow cytometry in the experiment.
The 293T-human PVRIG cell line was harvested, and washed and resuspended with 1×PBS to count the cells. Then 2×10^5 cells were placed into each 1.5 ml Ep tube, the respective humanized antibody was added at different concentrations, the mixture was incubated at 4° C. for 30 min, then washed with 1×PBS, and centrifuged at 3,500 rpm for 5 min to harvest the cells. The cell pellet was resuspended in 100 μl of 1×PBS, a AF647-labeled mouse anti-human IgG-Fc antibody (available from Biolegend) was added, the mixture was incubated at 4° C. for 30 min in the dark, followed by washing twice with 1×PBS and harvesting the cells by centrifugation at 3,500 rpm for 5 min. The cell pellet was resuspended with 200 μl of 1×PBS and measured using a flow cytometer (BD LSR II), and the analysis statistical results were shown in FIG. 16. It can be seen that all the humanized antibodies were ablet to specifically bind to the human PVRIG protein on the cell membrane surface.

T3 sequence (chain, as listed by the source limits assumed): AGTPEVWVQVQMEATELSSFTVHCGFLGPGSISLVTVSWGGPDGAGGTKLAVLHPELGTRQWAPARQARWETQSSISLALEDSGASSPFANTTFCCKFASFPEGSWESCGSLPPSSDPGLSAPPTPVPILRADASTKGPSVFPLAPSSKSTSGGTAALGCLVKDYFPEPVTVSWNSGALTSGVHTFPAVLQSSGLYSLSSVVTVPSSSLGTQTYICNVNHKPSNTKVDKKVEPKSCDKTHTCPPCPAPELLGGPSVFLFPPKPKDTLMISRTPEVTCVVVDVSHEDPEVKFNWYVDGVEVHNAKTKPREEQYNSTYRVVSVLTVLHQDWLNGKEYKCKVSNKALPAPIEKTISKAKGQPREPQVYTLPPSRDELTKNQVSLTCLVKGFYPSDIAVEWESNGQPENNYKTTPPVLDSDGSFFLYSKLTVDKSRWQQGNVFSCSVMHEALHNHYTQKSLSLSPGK

B1: Antibody 4 (antibody, V domains shown)
VH: QVQLQQSGAELVKPGASVKISCKATGYTFSSFSIEWVKQRPGHGLAWIGEILPGSNSTNYNEKFKGKATFTADTSSNTAYMQLSSLTSEDSAVYYCSSYWFAYWGQGTLVTVSA
VL: DIVMTQSPSSLSVSAGEKVTMSCKSSQSLLNSGNQKNYLAWYQQKPGQPPKLLIYGASTRESGVPDRFTGSGSGTDFTLTISSVQAEDLAVYYCQNAHSYPPTFAAGTKLELK
notes: Murine monoclonal antibody from hybridoma ascites; Used AF647-labelled in several flow cytometry assays; also called murine antibody (Antibody 4); murine Antibody 4
Turning to B1, in assay [1], the Kd was ≤ 4.1 pM. Besides, in assay [1], the koff was ≤ 1e-06 s⁻¹. Besides, the kon in assay [1] is 244000 M⁻¹ s⁻¹. Further, the “EC50 (read off the curve)” value is ~0.01 µg/mL in assay [2], ~0.02 µg/mL in assay [3] and ~0.04 µg/mL in assay [4]. In addition, the “IC50 (read off the curve)” value in assay [5] was ~3 µg/mL.

B2: Antibody 4-hu10 (antibody, human IgG4 S228P, kappa, V domains shown)
VH: EVQLVQSGAEVKKPGSSVKVSCKASGYTFSSFSIEWVRQAPGQGLEWIGEILPGSNSTNYNEKFKGRVTFTADTSTNTAYMELSSLRSEDTAVYYCSSYWFAYWGQGTLVTVSS
VL: DIVMTQSPDSLAVSLGERATINCKSSQSLLNSGNQKNYLAWYQQKPGQPPKLLIYGASTRESGVPDRFSGSGSGTDFTLTISSLQAEDVAVYYCQNAHSYPPTFGQGTKLEIKR
notes: Humanized Antibody 4; heavy chain IgG4 with S228P already in the entry
As to B2, in assay [1], the Kd is ≤ 4 pM, the koff is ≤ 1e-06 s⁻¹ and the association rate constant (kon) was 250000 M⁻¹ s⁻¹. The “EC50 (read off the curve)” value in assay [6] is ~0.0005 µg/mL.

B3: Antibody 4-hu11 (antibody, human IgG4 S228P, kappa, V domains shown)
VH: EVQLVQSGAEVKKPGSSVKVSCKASGYTFSSFSIEWVRQAPGQGLEWIGEILPGSNSTNYNEKFKGKATFTADTSTNTAYMELSSLRSEDTAVYYCSSYWFAYWGQGTLVTVSS
VL: DIVMTQSPDSLAVSLGERATINCKSSQSLLNSGNQKNYLAWYQQKPGQPPKLLIYGASTRESGVPDRFSGSGSGTDFTLTISSLQAEDVAVYYCQNAHSYPPTFGQGTKLEIKR
notes: as for B2
B3: in assay [1], the Kd was ≤ 4.22 pM, the koff was ≤ 1e-06 s⁻¹ and the kon stood at 237000 M⁻¹ s⁻¹. Further, the “EC50 (read off the curve)” value in assay [6] is ~0.003 µg/mL.
